Data on 5 molecules can be found in patent US20080160617A1, “AGENT FOR INDUCING EMBRYONIC STEM CELL TO ECTODERMAL CELL, METHOD FOR OBTAINING THE SAME, AND USE OF THE SAME” (KYOWA HAKKO KOGYO CO., LTD., priority 2001, published 2008).

Experiment [1] relates to ES cell EB5. As to the kind of experiment: Nerve differentiation of ES cell EB5 by solution recovered from PA6 cell with polyanion-containing Hanks' balanced salt solution (SDIA activity). It is filed as cell-based, mouse. As to conditions: SFRP 1 removed with anti-SFRP 1 polyclonal antibody on protein G Sepharose, 4° C., 15 hours; compared with untreated solution. Here is the method: ES cell EB5 (H. Niwa et al., Nature Genet., 24, 372 (2000); obtained from Dr. Hitoshi Niwa at the Molecular Control Medical Science Course, Medical School, Osaka University) was used as the embryonic stem cell, and an MC3T3-G2/PA6 cell (H. Kodama et al., J. Cell Physiol., 112) 89 (1982), hereinafter referred to as “PA6 cell”) as the stromal cell, and the ES cell EB5 was cultured in accordance with the method described in Reference Example 1 and used in the test.
Cells of PA6 cultured to almost confluent state on a dish of 10 cm in diameter were washed twice with 10 ml of PBS(−) (manufactured by Invitrogen) and once with 10 ml of Hanks' balanced salt solution (manufactured by Invitrogen), 3 ml of Hanks' balanced salt solution containing from 0.001% (w/v) to 0.1% (w/v) of heparin (manufactured by Nacalai Tesque) was added thereto, the mixture was allowed to stand at 37° C. for 30 minutes, and the solution was recovered. The solution obtained was added to the PA6 on the 10 cm, dish washed in the same manner described above, the mixture was allowed to stand at 37° C. for 30 minutes in the same manner, and then the solution was recovered. This process was carried out on PA6 on the other 10 cm dish, and effect of the recovered solution ES cell was examined. […]

The test system of experiment [2] is ES cell EB5. Kind of experiment: Mesodermal marker staining of colonies from ES cell/PA6 coculture in BMP4-added serum-free medium. Type of experiment: cell-based, mouse. As to conditions: 0.5 nmol/l BMP4-added serum-free medium, coculture with PA6 cell, 8 days. An excerpt: A medium was produced by adding 0.5 nmol/l of BMP4 (manufactured by R & D) to the serum-free medium described in Reference Example 1. Using the thus produced BMP4-added serum-free medium instead of the serum-free medium used in Reference Example 1, the ES cell EB5 and PA6 cell were cocultured according to the method described in Reference Example 1. That is, the PA6 cell proliferated to almost confluent on a 3 cm tissue culture dish was used as a feeder cell, the ES cell was inoculated onto the feeder cell at a density of 200 cells/dish, medium exchange was carried out with a fresh medium on the 4th, 6th and 7th days, and the cells were cultured at 37° C. for 8 days in a stream of 5% carbon dioxide in a CO2 incubator.
Eight days after coculturing, the cells were fixed according to the method described in Reference Example 1, and colonies formed as a result of coculturing of the ES cell and PA6 cell were immunologically stained with the anti-NCAM antibody, the anti-E cadherin antibody, an MF20 antibody which recognizes mesodermal cells (manufactured by Developmental Studies Hybridoma Bank) and an antibody against PDGF receptor α or Flk1 whose expression are observed in mesodermal cells (S. I. Nishikawa et al., Development, 125, 1747 (1998)).

Experiment [3] deals with ES cell EB5. As to the kind of experiment: Coculture of ES cell EB5 with PA6 cell in BMP4-added serum-free medium, immunological staining. It is filed as cell-based, mouse. Here is the method:
A medium was prepared by adding 0.5 nmol/l BMP4 (manufactured by R & D) to the serum-free medium described in Reference Example 1. The ES cell EB5 was cocultured with PA6 cell according to the method described in Reference Example 1, using the thus produced BMP4-added serum-free medium instead of the serum-free medium used in Reference Example 1. Eight days after culturing, immunological cell staining was carried out by using the anti-NCAM antibody, the anti-nestin antibody or an antibody against a non-neural ectoderm cell marker E cadherin (manufactured by Takara Shuzo). As a control, coculturing was carried out in the serum-free medium without BMP4.
Also, 8 days after culturing in the BMP4-added serum-free medium, the medium was changed to Glasgow MEM medium containing 10% fetal bovine serum (manufactured by GIBCO BRL), followed by culturing for 3 days. The thus cultured cells were fixed for 30 minutes by adding 4% paraformaldehyde and immunologically stained with an antibody against a skin epidermis cell marker keratin 14 (manufactured by Biomedia), and the results were compared with those in which culturing was continued for additional 3 days in the bovine serum-free medium, with the results shown in FIGS. 9G, H and I.

For experiment [4], the system named is ES cell EB5. As to the kind of experiment: Effects of shh and BMP4 on dorso-ventral neural markers in ES cell EB5/PA6 coculture. Type of experiment: cell-based, mouse. The note with it: shh 300 nmol/l or BMP4 0.5 nmol/l added at medium exchange on 4th, 6th, 8th days; 10 days coculture with PA6. As to the method: According to the method described in Reference Example 1, the ES cell EB5 was cultured for 10 days in the serum-free medium without BMP4 by using the PA6 cell as a feeder cell. That is, the PA6 cell proliferated to almost confluent on a 3 cm tissue culture dish was used as a feeder cell, the ES cell was inoculated onto the feeder cell at a density of 200 cells/dish, the medium was exchanged with a fresh serum-free medium on the 4th, 6th and 8th days, and the cells were cultured at 37° C. for 10 days in a 5% CO2 incubator.
Effects of shh were evaluated according to the similar method described above, by using a serum-free medium to which 300 nmol/l of shh (manufactured by R & D) had been added at the time of the medium exchange on the 4th, 6th and 8th days.
Effects of BMP4 were evaluated according to the similar method described above, by using a serum-free medium to which 0.5 nmol/l of BMP4 (manufactured by R & D) had been added at the time of the medium exchange on the 4th, 6th and 8th days.
Ten days after coculturing, the cells cultured by respective culturing methods were fixed according to the method described in Reference Example 1, and the colonies formed as a result of coculturing of the ES cell with PA6 cell were immunologically stained with the anti-NCAM antibody, an antibody against HNF-3β which is a marker of the basal plate existing on the most ventral side of the central nervous system primordium (neural tube) (purchased from Developmental Studies Hybridoma Bank), an antibody against Nkx2.2 as a marker existing secondary to the HNF-3β from the ventral side (purchased from Developmental Studies Hybridoma Bank), an antibody against Pax-7 as a marker of the neural tube dorsal side (purchased from Developmental Studies Hybridoma Bank), an antibody against AP-2 as a marker of the neural crest cell (purchased from Developmental Studies Hybridoma Bank), an antibody against islet 1 as a marker of motor neuron (purchased from Developmental Studies Hybridoma Bank) and an antibody against VAchT which is a marker of cholinergic neuron (manufactured by Chemicon).

The test system of the next experiment is embryonic stem cell. The note with it: cited from earlier work.
Setting [5] is: 0.5 nmol/l BMP4-added serum-free medium, coculture with PA6 cell, 8 days.

B1: SFRP 1: mouse-derived secreted frizzled-related protein 1 (SEQ ID NO:7), about 38 kDa band identified in solution having SDIA activity (protein, listed as Mus musculus)
chain: MGVGRSARGRGGAASGVLLALAAALLAAGSASEYDYVSFQSDIGSYQSGRFYTKPPQCVDIPVDLRLCHNVGYKKMVLPNLLEHETMAEVKQQASSWVPLLNKNCHMGTQVFLCSLFAPVCLDRPIYPCRWLCEAVRDSCEPVMQFFGFYWPEMLKCDKFPEGDVCIAMTPPNTTEASKPQGTTVCPPCDNELKSEAIIEHLCASEFALRMKIKEVKKENGDKKIVPKKKKPLKLGPIKKKELKALVLFLKNGADCPCHQLDNLSHNFLIMGRKVKSQYLLTAIHKWDKKNKEFKNFMKRMKNHECPTFQSVFK
Consider B1, for which the “SDIA activity of solution after removal of SFRP 1” value in the experiment on ES cell EB5 [1] is given as “decrease of SDIA activity was observed”.

B2: BMP4: bone morphogenetic protein 4, dorsal factor of neural tube (manufactured by R & D) (protein, UniProt P12644 293-408, looked up)
Bone morphogenetic protein 4: SPKHHSQRARKKNKNCRRHSLYVDFSDVGWNDWIVAPPGYQAFYCHGDCPFPLADHLNSTNHAIVQTLVNSVNSSIPKACCVPTELSAISMLYLDEYDKVVLKNYQEMVVEGCGCR
As to B2, the “colonies stained with mesodermal cell markers PDGF receptor α, Flk1 and MF20, of the total colonies” value in the experiment on ES cell EB5 [2] was ≤ 5%. For the same molecule, in the experiment with ES cell EB5 [3] (setting [5]), the “anti-NCAM antibody staining of ES cell-derived colonies” value is recorded as “anti-NCAM antibody-negative”, the “anti-nestin antibody staining of ES cell-derived colonies” value is listed as “anti-nestin antibody-negative” and the “frequency of E cadherin-positive colonies” value is 98%. Also, the “frequency of keratin 14-positive colonies” value in the experiment on ES cell EB5 [3] (8 days in BMP4-added serum-free medium, then 3 days in Glasgow MEM medium containing 10% fetal bovine serum) is 47%. Also, the “frequency of keratin 14-positive colonies” value in the experiment on ES cell EB5 [3] (BMP4-added serum-free medium throughout (8 days plus additional 3 days serum-free)) was 34%. Also, in the experiment with ES cell EB5 [4], the “ratio of ES cell-derived colonies stained with Anti-AP-2 antibody” value is 24%, the “ratio of ES cell-derived colonies stained with Anti-HNF-3β antibody” value was 9%, the “ratio of ES cell-derived colonies stained with Anti-NCAM antibody” value was 90% and the “ratio of ES cell-derived colonies stained with Anti-Nkx2.2 antibody” value was found to be 19%. For the same molecule, in the experiment with ES cell EB5 [4], the “ratio of ES cell-derived colonies stained with Anti-Pax-7 antibody” value was found to be 72%, the “ratio of ES cell-derived colonies stained with Anti-VAchT antibody” value came out at 42% and the “ratio of ES cell-derived colonies stained with Anti-islet 1 antibody” value is 36%.

B3: FGF-8: fibroblast growth factor 8 (protein, UniProt P55075 23-233, looked up)
Fibroblast growth factor 8: QEGPGRGPALGRELASLFRAGREPQGVSQQHVREQSLVTDQLSRRLIRTYQLYSRTSGKHVQVLANKRINAMAEDGDPFAKLIVETDTFGSRVRVRGAETGLYICMNKKGKLIAKSNGKGKDCVFTEIVLENNYTALQNAKYEGWYMAFTRKGRPRKGSKTRQHQREVHFMKRLPRGHHTTEQSLRFEFLNYPPFTRSLRGSQRTWAPEPR
Consider B3, for which the “SDIA-like activity to induce differentiation of embryonic stem cell into ectoderm system cells” value in the experiment with embryonic stem cell was “no SDIA-like activity”.

B4: GDNF: glial cell-line derived neurotrophic factor (protein, UniProt P39905 78-211, looked up)
Glial cell line-derived …: SPDKQMAVLPRRERNRQAAAANPENSRGKGRRGQRGKNRGCVLTAIHLNVTDLGLGYETKEELIFRYCSGSCDAAETTYDKILKNLSRNRRLVSDKVGQACCRPIAFDDDLSFLDDNLVYHILRKHSAKRCGCI
On to B4, for which, in the experiment with embryonic stem cell, the “SDIA-like activity to induce differentiation of embryonic stem cell into ectoderm system cells” value is recorded as “no SDIA-like activity”.

B5: IL-11: interleukin 11 (protein, UniProt P20809 22-199, looked up)
Interleukin-11: PGPPPGPPRVSPDPRAELDSTVLLTRSLLADTRQLAAQLRDKFPADGDHNLDSLPTLAMSAGALGALQLPGVLTRLRADLLSYLRHVQWLRRAGGSSLKTLEPELGTLQARLDRLLRRLQLLMSRLALPQPPPDPPAPPLAPPSSAWGGIRAAHAILGGLHLTLDWAVRGLLLLKTRL
As to B5, in the experiment on embryonic stem cell, the “SDIA-like activity to induce differentiation of embryonic stem cell into ectoderm system cells” value is recorded as “no SDIA-like activity”.
